In paper PMC8445988, “Characterization of two β-galactosidases LacZ and WspA1 from Nostoc flagelliforme with focus on the latter’s central active region” (Scientific Reports, 2021):

Key:
[1] = substrate: O=[N+]([O-])c1ccccc1O[C@@H]1O[C@H](CO)[C@H](O)[C@H](O)[C@H]1O; assay: purified protein
[2] = biological target: the molecule itself; assay: SEC; gel filtration on an FPLC system (AKTA purifier), 20 mM Tris-HCl, 150 mM NaCl, 10% glycerol, pH 7.5; five molecular weight markers (200, 150, 66, 29, 12.4 kDa); absorbance at 280 nm

B1: Nf-LacZ (β-galactosidase LacZ of Nostoc flagelliforme) (enzyme, UniProt A0A2K8T1B7 1-619, looked up)
chain: MKLLDIQKRKVESPSNRDNQRVSSFPEAGYPRPQLQRSHWLSLNGLWKFAFDNEGRCVQPGDIEGWTHHIQVPFAPESTKSGIGDTGFHPNCWYEREFETPEGDGRLLLHFGAVDYRARVWVNGQYMIEHEGGHTPFTLDITTVLNDTGITKVTVWAQDDPGDLAKPRGKQDWQLEPHSIWYPRTSGIWQTVWIERVGRTYIDSIRWSPDFERWEVGCYAAIAGDAPAGIQIKVKLSIGNTVLANDTYEVFNGEIGRRISLSDPGIDDYRNELLWSPEKPTLMDAHIELWHNNQLLDEAKSYTAMRTVGIQRDRFMLNGRPYYLRLVLDQGYWPDSLMTAPDDGALRRDVELTKAMGFNGVRKHQKIEDPRFLYWADKLGLLVWEEMPSAYRFTPKAVERTTREWAEVIRRDISHPCIVAWVTFNESWGVPNLVETAAHRNYVLAMYHLTKTLDPGRPVIANDGWESTDTDILAIHDYDTHPQRLGHRYGPEVKLSDLFDRKRPGGRILTLDNFPHQGQPVMLTEFGGIAYAPVDNPDADKAWGYERCSNISELEIKYATLLETINDIELFSGFCYTQFTDTFQEANGLLYADRTPKFPIEAIRAATLSGQGLCTPTSC
notes: β-galactosidase LacZ homolog of Nostoc flagelliforme, NCBI AUB41471, gene COO91_07519 (KEGG); 619 amino acid residues, calculated 70.8 kDa; The number of chains in the multimer is left open (at least a trimer or larger); also called COO91_07519; AUB41471
[1]
  Km: 500 µM
[2]
  stoichiometry N: ≥ 3
